Source: patent US20100041743A1

Tests used:
Test in all cases: cell-based or functional assay
[1] = target: anti-OVA mouse IgG1 (mAb, Sigma)
[2] = target: human IgG (Gammonativ, Octapharma)
rabbit IgG (Sigma) = target: rabbit IgG (Sigma)

beta-phase half-life (hours) of injected mouse IgG in bFcRn Tg mice (line #14 homozygote), 10 µg/BWg [1]: 165 h
beta-phase half-life (hours) of injected human IgG in bFcRn Tg mice (line #14 homozygote), 10 µg/BWg [2]: 172 h
beta-phase half-life (hours) of injected human IgG in bFcRn Tg mice (line #14 homozygote), 20 µg/BWg [2]: 181 h
half-life of injected rabbit IgG in bFcRn/mFcRn-/- mice (15 hours in FcRn-/- mice) (rabbit IgG (Sigma)): 67 h
Substance: hybrid bFcRn α-chain / mouse β2m receptor (bovine FcRn expressed in BAC 128E04 transgenic mice) (from UniProt F6R592 35-358; P01887 21-119)
